{"source": "the supplement of paper PMC7125110", "parents": {"B1": {"name": "glmS ribozyme (parent)", "chain": "AUAAAAGCGCCAGAACUACAGAAAUGUAGUUGACGAGGAGGAGGUUUAUCGAAUUUUCGGCGGAUGCCUCCAAA"}}, "conditions_in_all_cases": "with glucosamine-6-phosphate", "key": {"glucosamine-6-phosphate [1]": {"variants_of": "B1", "assay": "kcat; higher = faster cleavage; RNA array", "procedure,_shortened": "(§1)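 Over ~14 h at 37 °C, tiles were imaged as glucosamine-6-phosphate (40 μM to 10 mM) in HEPES/KCl/Mg(OAc)2 buffer flowed across sequenced MiSeq chips. The chips carried barcoded ribozyme variants transcribed in situ by E. coli RNA polymerase and tracked with a hybridised Cy3 probe. After normalisation to baseline and to non-cleaving reference variants, one- or two-exponential decay fits of per-tile medians gave kobs. kcat and KM followed from weighted Michaelis–Menten fits across concentrations.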"}, "glucosamine-6-phosphate [2]": {"variants_of": "B1", "assay": "self-cleavage kobs at 160 uM GlcN6P; higher = faster cleavage; RNA array", "procedure,_shortened": "as §1"}, "glucosamine-6-phosphate [3]": {"variants_of": "B1", "assay": "self-cleavage kobs at 2500 uM GlcN6P; higher = faster cleavage; RNA array", "procedure,_shortened": "as §1"}, "glucosamine-6-phosphate [4]": {"variants_of": "B1", "assay": "self-cleavage kobs at 10000 uM GlcN6P; higher = faster cleavage; RNA array", "procedure,_shortened": "as §1"}, "glucosamine-6-phosphate [5]": {"variants_of": "B1", "assay": "KM; higher = weaker cofactor use; RNA array", "procedure,_shortened": "as §1"}, "glucosamine-6-phosphate [6]": {"variants_of": "B1", "assay": "self-cleavage kobs at 40 uM GlcN6P; higher = faster cleavage; RNA array", "procedure,_shortened": "as §1"}, "glucosamine-6-phosphate [7]": {"variants_of": "B1", "assay": "self-cleavage kobs at 640 uM GlcN6P; higher = faster cleavage; RNA array", "procedure,_shortened": "as §1"}}, "note": "± gives the standard error. For some of these results: Variants at the floor of the assay were thinned out.", "data": [{"variant": "C8A A48G", "values": [{"measurement": "kcat", "setting": "glucosamine-6-phosphate [1]", "value": "< 1e-05", "unit": "s⁻¹"}, {"measurement": "self-cleavage kobs at 160 uM GlcN6P", "setting": "glucosamine-6-phosphate [2]", "value": "< 1e-05", "unit": "s⁻¹"}, {"measurement": "self-cleavage kobs at 2500 uM GlcN6P", "setting": "glucosamine-6-phosphate [3]", "value": "< 1e-05", "unit": "s⁻¹"}, {"measurement": "self-cleavage kobs at 10000 uM GlcN6P", "setting": "glucosamine-6-phosphate [4]", "value": "< 1e-05", "unit": "s⁻¹"}]}, {"variant": "G9A C16A", "values": [{"measurement": "kcat", "setting": "glucosamine-6-phosphate [1]", "value": "< 1e-05", "unit": "s⁻¹"}, {"measurement": "KM", "setting": "glucosamine-6-phosphate [5]", "value": "31.6 ± 7.6", "unit": "µM"}]}, {"variant": "C10U U56C", "values": [{"measurement": "kcat", "setting": "glucosamine-6-phosphate [1]", "value": "2.01e-05 ± 2.1e-06", "unit": "s⁻¹"}, {"measurement": "self-cleavage kobs at 40 uM GlcN6P", "setting": "glucosamine-6-phosphate [6]", "value": "< 1e-05", "unit": "s⁻¹"}]}, {"variant": "C10U U56G", "values": [{"measurement": "kcat", "setting": "glucosamine-6-phosphate [1]", "value": "3.3e-05 ± 4.5e-06", "unit": "s⁻¹"}, {"measurement": "self-cleavage kobs at 2500 uM GlcN6P", "setting": "glucosamine-6-phosphate [3]", "value": "2.86e-05 ± 8.5e-06", "unit": "s⁻¹"}, {"measurement": "self-cleavage kobs at 10000 uM GlcN6P", "setting": "glucosamine-6-phosphate [4]", "value": "2.92e-05 ± 6.7e-06", "unit": "s⁻¹"}]}, {"variant": "C11U A12U G32A", "values": [{"measurement": "kcat", "setting": "glucosamine-6-phosphate [1]", "value": "0.000169 ± 4.7e-05", "unit": "s⁻¹"}, {"measurement": "self-cleavage kobs at 2500 uM GlcN6P", "setting": "glucosamine-6-phosphate [3]", "value": "0.000124 ± 3.5e-05", "unit": "s⁻¹"}, {"measurement": "self-cleavage kobs at 10000 uM GlcN6P", "setting": "glucosamine-6-phosphate [4]", "value": "0.00013 ± 2.5e-05", "unit": "s⁻¹"}]}, {"variant": "C10A A53G", "values": [{"measurement": "kcat", "setting": "glucosamine-6-phosphate [1]", "value": "1.35e-05 ± 4.5e-06", "unit": "s⁻¹"}, {"measurement": "self-cleavage kobs at 40 uM GlcN6P", "setting": "glucosamine-6-phosphate [6]", "value": "< 1e-05", "unit": "s⁻¹"}, {"measurement": "self-cleavage kobs at 160 uM GlcN6P", "setting": "glucosamine-6-phosphate [2]", "value": "< 1e-05", "unit": "s⁻¹"}]}, {"variant": "A12C G43A", "values": [{"measurement": "kcat", "setting": "glucosamine-6-phosphate [1]", "value": "6.99e-05 ± 1.2e-05", "unit": "s⁻¹"}, {"measurement": "KM", "setting": "glucosamine-6-phosphate [5]", "value": "1870 ± 800", "unit": "µM"}, {"measurement": "self-cleavage kobs at 2500 uM GlcN6P", "setting": "glucosamine-6-phosphate [3]", "value": "3.76e-05 ± 8.6e-06", "unit": "s⁻¹"}, {"measurement": "self-cleavage kobs at 10000 uM GlcN6P", "setting": "glucosamine-6-phosphate [4]", "value": "6.33e-05 ± 1.9e-05", "unit": "s⁻¹"}]}, {"variant": "G7U A14U G29A G37U C61G U69C", "values": [{"measurement": "kcat", "setting": "glucosamine-6-phosphate [1]", "value": "0.000491 ± 3.7e-05", "unit": "s⁻¹"}, {"measurement": "KM", "setting": "glucosamine-6-phosphate [5]", "value": "143 ± 19", "unit": "µM"}, {"measurement": "self-cleavage kobs at 40 uM GlcN6P", "setting": "glucosamine-6-phosphate [6]", "value": "0.000105 ± 2.3e-05", "unit": "s⁻¹"}, {"measurement": "self-cleavage kobs at 160 uM GlcN6P", "setting": "glucosamine-6-phosphate [2]", "value": "0.000282 ± 7.4e-05", "unit": "s⁻¹"}, {"measurement": "self-cleavage kobs at 640 uM GlcN6P", "setting": "glucosamine-6-phosphate [7]", "value": "0.000389 ± 0.00014", "unit": "s⁻¹"}, {"measurement": "self-cleavage kobs at 2500 uM GlcN6P", "setting": "glucosamine-6-phosphate [3]", "value": "0.000446 ± 0.00019", "unit": "s⁻¹"}]}, {"variant": "G7U C16U C50G U69G", "values": [{"measurement": "kcat", "setting": "glucosamine-6-phosphate [1]", "value": "0.000615 ± 0.00015", "unit": "s⁻¹"}, {"measurement": "self-cleavage kobs at 40 uM GlcN6P", "setting": "glucosamine-6-phosphate [6]", "value": "0.00029 ± 0.00013", "unit": "s⁻¹"}, {"measurement": "self-cleavage kobs at 640 uM GlcN6P", "setting": "glucosamine-6-phosphate [7]", "value": "0.0012 ± 0.00039", "unit": "s⁻¹"}, {"measurement": "self-cleavage kobs at 2500 uM GlcN6P", "setting": "glucosamine-6-phosphate [3]", "value": "0.000564 ± 0.0002", "unit": "s⁻¹"}, {"measurement": "self-cleavage kobs at 10000 uM GlcN6P", "setting": "glucosamine-6-phosphate [4]", "value": "0.00054 ± 0.00017", "unit": "s⁻¹"}]}, {"variant": "C11U A12C", "values": [{"measurement": "kcat", "setting": "glucosamine-6-phosphate [1]", "value": "9.58e-05 ± 3.4e-06", "unit": "s⁻¹"}, {"measurement": "KM", "setting": "glucosamine-6-phosphate [5]", "value": "1050 ± 120", "unit": "µM"}, {"measurement": "self-cleavage kobs at 640 uM GlcN6P", "setting": "glucosamine-6-phosphate [7]", "value": "3.76e-05 ± 7e-06", "unit": "s⁻¹"}, {"measurement": "self-cleavage kobs at 2500 uM GlcN6P", "setting": "glucosamine-6-phosphate [3]", "value": "6.24e-05 ± 1.2e-05", "unit": "s⁻¹"}, {"measurement": "self-cleavage kobs at 10000 uM GlcN6P", "setting": "glucosamine-6-phosphate [4]", "value": "8.81e-05 ± 9e-06", "unit": "s⁻¹"}]}, {"variant": "C11U A12G", "values": [{"measurement": "kcat", "setting": "glucosamine-6-phosphate [1]", "value": "0.00116 ± 0.00011", "unit": "s⁻¹"}, {"measurement": "KM", "setting": "glucosamine-6-phosphate [5]", "value": "1760 ± 310", "unit": "µM"}, {"measurement": "self-cleavage kobs at 160 uM GlcN6P", "setting": "glucosamine-6-phosphate [2]", "value": "9.07e-05 ± 1.3e-05", "unit": "s⁻¹"}, {"measurement": "self-cleavage kobs at 640 uM GlcN6P", "setting": "glucosamine-6-phosphate [7]", "value": "0.000315 ± 4.3e-05", "unit": "s⁻¹"}, {"measurement": "self-cleavage kobs at 2500 uM GlcN6P", "setting": "glucosamine-6-phosphate [3]", "value": "0.00079 ± 8.1e-05", "unit": "s⁻¹"}, {"measurement": "self-cleavage kobs at 10000 uM GlcN6P", "setting": "glucosamine-6-phosphate [4]", "value": "0.000933 ± 8.4e-05", "unit": "s⁻¹"}]}, {"variant": "C11U A12U", "values": [{"measurement": "kcat", "setting": "glucosamine-6-phosphate [1]", "value": "0.00624 ± 0.00051", "unit": "s⁻¹"}, {"measurement": "KM", "setting": "glucosamine-6-phosphate [5]", "value": "1290 ± 150", "unit": "µM"}, {"measurement": "self-cleavage kobs at 40 uM GlcN6P", "setting": "glucosamine-6-phosphate [6]", "value": "0.000179 ± 1.8e-05", "unit": "s⁻¹"}, {"measurement": "self-cleavage kobs at 160 uM GlcN6P", "setting": "glucosamine-6-phosphate [2]", "value": "0.000886 ± 0.00016", "unit": "s⁻¹"}, {"measurement": "self-cleavage kobs at 640 uM GlcN6P", "setting": "glucosamine-6-phosphate [7]", "value": "0.00209 ± 0.00035", "unit": "s⁻¹"}, {"measurement": "self-cleavage kobs at 2500 uM GlcN6P", "setting": "glucosamine-6-phosphate [3]", "value": "0.00418 ± 0.00075", "unit": "s⁻¹"}, {"measurement": "self-cleavage kobs at 10000 uM GlcN6P", "setting": "glucosamine-6-phosphate [4]", "value": "0.00547 ± 0.00057", "unit": "s⁻¹"}]}, {"variant": "C8A G37C", "values": [{"measurement": "kcat", "setting": "glucosamine-6-phosphate [1]", "value": "< 1e-05", "unit": "s⁻¹"}, {"measurement": "self-cleavage kobs at 160 uM GlcN6P", "setting": "glucosamine-6-phosphate [2]", "value": "< 1e-05", "unit": "s⁻¹"}, {"measurement": "self-cleavage kobs at 640 uM GlcN6P", "setting": "glucosamine-6-phosphate [7]", "value": "< 1e-05", "unit": "s⁻¹"}]}, {"variant": "C11U A15G", "values": [{"measurement": "kcat", "setting": "glucosamine-6-phosphate [1]", "value": "0.00211 ± 0.00043", "unit": "s⁻¹"}, {"measurement": "KM", "setting": "glucosamine-6-phosphate [5]", "value": "1010 ± 320", "unit": "µM"}, {"measurement": "self-cleavage kobs at 40 uM GlcN6P", "setting": "glucosamine-6-phosphate [6]", "value": "0.000103 ± 1.4e-05", "unit": "s⁻¹"}, {"measurement": "self-cleavage kobs at 160 uM GlcN6P", "setting": "glucosamine-6-phosphate [2]", "value": "0.000249 ± 4.3e-05", "unit": "s⁻¹"}, {"measurement": "self-cleavage kobs at 640 uM GlcN6P", "setting": "glucosamine-6-phosphate [7]", "value": "0.000746 ± 8.9e-05", "unit": "s⁻¹"}, {"measurement": "self-cleavage kobs at 2500 uM GlcN6P", "setting": "glucosamine-6-phosphate [3]", "value": "0.00141 ± 0.00022", "unit": "s⁻¹"}, {"measurement": "self-cleavage kobs at 10000 uM GlcN6P", "setting": "glucosamine-6-phosphate [4]", "value": "0.0023 ± 0.00037", "unit": "s⁻¹"}]}, {"variant": "C11U A15U", "values": [{"measurement": "kcat", "setting": "glucosamine-6-phosphate [1]", "value": "0.000594 ± 3.8e-05", "unit": "s⁻¹"}, {"measurement": "KM", "setting": "glucosamine-6-phosphate [5]", "value": "1540 ± 230", "unit": "µM"}, {"measurement": "self-cleavage kobs at 160 uM GlcN6P", "setting": "glucosamine-6-phosphate [2]", "value": "4.54e-05 ± 1.7e-05", "unit": "s⁻¹"}, {"measurement": "self-cleavage kobs at 640 uM GlcN6P", "setting": "glucosamine-6-phosphate [7]", "value": "0.000178 ± 2.4e-05", "unit": "s⁻¹"}, {"measurement": "self-cleavage kobs at 2500 uM GlcN6P", "setting": "glucosamine-6-phosphate [3]", "value": "0.000375 ± 5.4e-05", "unit": "s⁻¹"}, {"measurement": "self-cleavage kobs at 10000 uM GlcN6P", "setting": "glucosamine-6-phosphate [4]", "value": "0.000511 ± 4.5e-05", "unit": "s⁻¹"}]}, {"variant": "C8A G37C G38A C70U", "values": [{"measurement": "kcat", "setting": "glucosamine-6-phosphate [1]", "value": "1.14e-05 ± 3.5e-06", "unit": "s⁻¹"}]}, {"variant": "C11A U47A", "values": [{"measurement": "kcat", "setting": "glucosamine-6-phosphate [1]", "value": "8.3e-05 ± 1.6e-05", "unit": "s⁻¹"}, {"measurement": "self-cleavage kobs at 2500 uM GlcN6P", "setting": "glucosamine-6-phosphate [3]", "value": "5.35e-05 ± 2.1e-05", "unit": "s⁻¹"}, {"measurement": "self-cleavage kobs at 10000 uM GlcN6P", "setting": "glucosamine-6-phosphate [4]", "value": "6.56e-05 ± 1.8e-05", "unit": "s⁻¹"}]}]}
